Source: the DeepSol protein solubility set

Test: soluble on expression in E. coli; label from the status in PepcDB or PDB records

Sequence | soluble on expression in E. coli
MGSDKIHHHHHHMIDLRSDTVTKPTEEMRKAMAQAEVGDDVYGEDPTINELERLAAETFGKEAALFVPSGTMGNQVSIMAHTQRGDEVILEADSHIFWYEVGAMAVLSGVMPHPVPGKNGAMDPDDVRKAIRPRNIHFPRTSLIAIENTHNRSGGRVVPLENIKEICTIAKEHGINVHIDGARIFNASIASGVPVKEYAGYADSVMFCLSKGLCAPVGSVVVGDRDFIERARKARKMLGGGMRQAGVLAAAGIIALTKMVDRLKEDHENARFLALKLKEIGYSVNPEDVKTNMVILRTDNLKVNAHGFIEALRNSGVLANAVSDTEIRLVTHKDVSRNDIEEALNIFEKLFRKFS | soluble
SLKNSESHGEADGGLRERKKRETKKRLTEKGIALFLERGFDNTTLDEIASAAGISRRTFFYYFKSKDEILLSLQSGIGEMLADAVRRAPSSSTPIEVVRDAAIGVCKVIPTNDMIEMDRLMRTSPSVQARKQVSYVQQEGEIYEALSERWPEPERSTALRVVAMLSVGAMRIAGDIFSQEKGVRPMVDLLEEAFGSLIQEVRSGDPRV | soluble
MGSSHHHHHHSSGLVPRGSHMSVPLYGFTSICGRRPEMEDAVSTIPRFLQSSSGSMLDGRFDPQSAAHFFGVYDGHGGSQVANYCRERMHLALAEEIAKEKPMLCDGDTWLEKWKKALFNSFLRVDSEIESVAPETVGSTSVVAVVFPSHIFVANCGDSRAVLCRGKTALPLSVDHKPDREDEAARIEAAGGKVIQWNGARVFGVLAMSRSIGDRYLKPSIIPDPEVTAVKRVKEDDCLILASDGVWDVMTDEEACEMARKRILLWHKKNAVAGDASLLADERRKEGKDPAAMSAAEYLSKLAIQRGSKDNISVVVVDLKPRRKLK | soluble
MAHHHHHHMTQSTIPLQSNIKISDRLEENSIDFCRFVGPFNRADEYAFTAPPWCQREGSENVPGSSLSTSVSAVFVLVSSPPNCGLVARFFCTKLLHYLLWCYKDAAFFLAGPSPRDFNVYRHEDDAAAWRKCMETCLAKSLEHVESARKRGTLTEPVVIVLADCESQAAYDTVHKMLGSMENLFVRHIWFGDSWRESNPVDCSYINVCLRQPAYRLTKCRGSSTCAKITSYLNSCLPTLHHIHLHEPLSGSPEETLRSGCPLFFTRHGQSEYNLEDRLGGDPDITPLGVDDALTLAEFFRDQVVRNPRLFATRDSIWDETEGFEVWCSQLKRTRHTAQPSADVLTNGNLKAFKMLNEIHAGVCEDMTANEVKEQYPSIQFFRHTDKAGFRYPNGESYHDLKRRLVPILYDLNATRKGILVVAHQAVLRAILSFFGGPPVEEAVHKPCAHRAVWCCTYNRLGEPRLSTITLRPRLQSSTEASTSVG | not soluble
MGSDKIHHHHHHMQPMDAEVLRILRKNNKSQDWGKINKKLHPKIVKYVDGKPVYQFFDTLNDNSFEKNGQLISIRTQPVNSFVPYHVHNYVEMMVVLSGRCVIKTQSESITLIQDEIMIIGCKTIHKIKPINDETIVVEIALKRTAFSLRDLTFLTHSRDAQSVSSTVFFLLSNDDSYGAFNVFHTQHDVNVVNKVNNIIREYYRPDNYSNQVIKFKILELFIRLVRLASKGPILQTQKEDHKNNEVDALTLLLYIEKNYKTVTLKSMAKHFKFHPNYLSSILKRKTGYTFIKLVHLQRINVAAEYLSLTDISIESISLAVGYEDPSCFYKIFRNHMGCSPREYRQRQAA | not soluble
MGSDKIHHHHHHMTVEFDAARLGPILYYRGLEGDALQLAAMVMLPIGERPETLRTDAGDHAPTLLREIGRSAVWRYDFGLTPSCGSYRLGDQSYDVQTDLHGDMRIAFASCNGEEKGDLDRDQEERNRMWAHMCAEHRRAPFALLLQGGDQIYADEATEGHPLSEDWPDKAGRPRNAEELKDLADHLRLRFAERYVQALFGEAPSWIMARVPTLAIWDDHDICDGWGSLYRSKTHSEVGQCLYAVAREMYLLFQHAAVEGDIPDLFMDETGTSLSWQRALPGVKLLAPDLRAERGRRQVLGAYGWSAVEAMKPGSEHTFVISSVPLLGPRLSLVEGLMLMIPTMQKYEDDLRDQWQSRAHRKEWIRMLKQVIAWREEAPVTILSGEIHLATRAEMGPDETRVHQLVASGIAHRAPPQSYARSLGTLAGLGDAPVSGHPIRIHPLPGQSQRYTAERNYLELRRTHGKWHAVWHLEESGDTVPMVLE | not soluble
MCFSPEDRKKTDHLLALDGAKERLKLFKADLLDEGSFELAIDGCETVFHTASPVAITVKTDPQVELINPAVNGTINVLRTCTKVSSVKRVILTSSMAAVLAPETKLGPNDVVDETFFTNPSFAEERKQWYVLSKTLAEDAAWRFAKDNEIDLIVLNPGLVTGPILQPTLNFSVAVIVELMKGKNPFNTTHHRFVDVRDVALAHVKALETPSANGRYIIDGPVVTIKDIENVLREFFPDLCIADRNEDITELNSVTFNVCLDKVKSLGIIEFTPTETSLRDTVLSLKEKCLV | soluble
MGSDKIHHHHHHMSGFLTFDFENQAVRAFEHDGQEWFVAVDVCRCLRLENSRQALTRLSDDEKRSCNLNTLTDSKGIIFNAINDSDGIRAGNPNATIVNEPGLYRLIFTSTKPEAERLKRFVFHEVLPALRHTGCFAPEPVIDWEIAREQLSLVREARLAHGKEAAAALWRELGLPMPKDETSDKERRQAQGLMKYVYDFIDECMVFDQKAEVTGKEVYQRYQQWSATNNAPYIMNSSFGRFLIRAGIVKRHVSTGSRYIGVRLKHHIQITDQSS | not soluble
MESVPSPRRVVLTPGARRALDAAGRLFYERGIHAVGVDLIAAEAGVTKKTLYDRFGSKEQIVVEYLADRDERWRAFLAGHLDTAGDSPGRRLTAIFDASREWTAENSAKGCSMVNAHAEISDPAHPAYAVIVGQKRWMLDLFTGVCRDASVRDPETLARTVMLLHEGALVSHGLQVFPEAVRLASDQASALLAAAAGPAR | not soluble
MSNTLNHTSSRQIVRHYTHSQKRCKHLMQYFVSANGLFELKVKIYAFLFSMILEGKCRSVSIIADISCFFLFHFHAIRNAFYSIHPTYRAEGENERLTLLLIAQGYALSL | not soluble
MPKRSKEDTEITIQKIMDAVVDQLLRLGYDKMSYTTLSQQTGVSRTGISHHFPKKTDFTAALDGRIFKMFIEHLEFEKGLDAFSQSWIKALEDSEFLAILRLLFHHIVTSESAHEFAANGIDRLYKMVESQFGSGGDKELEWLIGRSLIQMSK | not soluble
SNATGLGELKISDTICAQNAVEALPALSVDEPTVTMTFQVNTSPFAGKEGKFVTSRNILERLEKELVHNVALRVEQTDDPDKFRVSGRGELHLSILIENMRREGFELAVSRPEVIIKEEDGQLMEPFETVTIDVMEEHQGGIMENIGLRKGELKDMAPDGKGRVRMDFIMPSRGLIGFQTEFMTLTSGSGLLYHTFDHYGPHKGGNIGQRVNGVLIANAAGKALTNALFNLQERGRLFIGHGVEVYEGMVIGIHSRDNDLTVNALKGKQLTNVRASGTDDAQVLTPPIVMTLEQALEFIDDDELVEVTPESIRIRKKFLTESDRKRASRSAK | soluble
MGHHHHHHSHMVVVAAAPNPADGTPKVLLLSGQPASAAGAPAGQALPLMVPAQRGASPEAASGGLPQARKRQRLTHLSPEEKALRRKLKNRVAAQTARDRKKARMSELEQQVVDLEEENQKLLLENQLLREKTHGLVVENQELRQRLGMDALVAEEEAEAKGNEVRPVAGSAESAALRLRAPLQQVQAQLSPLQNISPWILAVLTLQIQSLISCWAFWTTWTQSCSSNALPQSLPAWRSSQRSTQKDPVPYQPPFLCQWGRHQPSWKPLMN | not soluble
MTMPVNTIMGLFAKSPIKPLQRHVVCVNECCSHLINFFEVCNKGDWEKAGEIRAQISHLEKEADVLKREIRLKLPRGLFMPVDRSDMLELLTQQDKLANLAKDIAGRVYGRQLVIPEPLQENFIAYVRRCLDAANQAQNVINELDELLETGFKGREVTLVAEMIHQLDVIEDDTDSMQIRLRQQLMAIESKMNPIDVMFLYKILEWVGGIADQAQRVGARLELMLSRS | not soluble
SFSWLLRLCQKENGDEGDTRPTKKEEGILSHEKGRRKSFWRRHRSARNTSTQNSNITNQISNINKVRELKLDMRKISNDMEEMCGILNLYMYEDLNYRMNTEFNIIKSQHEKTMLDMDKMTQSIIASMKFSEELLKDNYSYSIKQKRGSVRRPARTCVSQVPRSSRCDHEIPQISDPDGSLHSSWDLGSIVSSEPD | soluble
